# Results: FireProtDB (doi:10.1006/jmbi.1996.0075)
# Where “and” joins values, the source holds several entries; their conditions need not be identical. Equal entries are not always repeated.
# Conditions: Equus caballus, 20 °C, CD, reversible: yes; for unfolding free energy: Thermal
# Chain of Cytochrome c wild type, P00004 (P00004 whole entry): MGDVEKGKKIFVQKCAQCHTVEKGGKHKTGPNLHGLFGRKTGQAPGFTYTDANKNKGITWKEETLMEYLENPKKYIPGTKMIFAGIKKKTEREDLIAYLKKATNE
substance,measurement,setting,value
"Cytochrome c wild type, P00004",denaturant m value,"pH 2, GdnHCl, glycine-HCl 5-10 mM, NaClO4 200 mM",1.58 kcal/mol/M and 1.24 kcal/mol/M and 1.12 kcal/mol/M
same,unfolding free energy,"pH 3.9, Sodium acetate 5-10 mM, NaCl",2.38 kJ/mol
same,unfolding free energy,"pH 6, Sodium phosphate 5-10 mM, NaCl",5.82 kJ/mol
same,denaturant m value,"pH 7, GdnHCl, Sodium phosphate 5-10 mM, NaCl",3.01 kcal/mol/M and 2.1 kcal/mol/M
same,unfolding free energy,"pH 7, Sodium phosphate 5-10 mM, NaCl",7.11 kJ/mol
same,denaturant m value,"pH 7, Urea, Sodium phosphate 5-10 mM, NaCl",1.2 kcal/mol/M and 0.86 kcal/mol/M
